Source: US10487114

Tested on: T1, pT231-Pro tau peptide KVAVVR-(pT231)-(Pro)-PKSPS
T1 sequence: KVAVVRTPPKSPS

Q: With PP2A as the substance, how does the “dephosphorylation of pT231-tau peptide, read with the conformation-specific antibodies” value read?
A: Trans, but not cis, pT231-tau peptide was readily dephosphorylated by PP2A in a time-dependent manner
